The source of these data is the RNAGym collection of RNA variant scans (doi:10.7554/elife.80360).

B1: CPEB3 Ribozyme (parent)
chain: GGGGGCCACAGCAGAAGCGUUCACGUCGCGGCCCCUGUCAGAUUCUGGUGAAUCUGCGAAUUCUGCUGU

In the series the parent is B1. Briefly: self-cleavage, relative activity (ratio to wild type); higher = more cleavage; co-transcriptional.
As for GGGGGCCACAGCAGAAGCGUUCACGUCGCGGCCCCUGUCAGAUUCUGGUGAAUCUGCGAAUUCUUCCGU [G65U U67C], the self-cleavage came to 0.78.

For the variant GGGGGCCACAGCAGAAGCGUUCACGUCGCGGCCCCUGUCAGAUUCUGGUGAAUCUGCGAAUUCUUCAGU [G65U U67A], the self-cleavage was determined as 0.848.

GGGGGCCACAGCAGAAGCGUUCACGUCGCGGCCCCUGUCAGAUUCUGGUGAAUCUGCGAAUUCUUCGGU [G65U U67G]: the self-cleavage stood at 0.92.

For the variant GGGGGCCACAGCAGAAGCGUUCACGUCGCGGCCCCUGUCAGAUUCUGGUGAAUCUGCGAAUUCUUAUGU [G65U C66A], the self-cleavage worked out at 0.669.

As for GGGGGCCACAGCAGAAGCGUUCACGUCGCGGCCCCUGUCAGAUUCUGGUGAAUCUGCGAAUUCUUUUGU [G65U C66U], the self-cleavage came to 0.55.

With GGGGGCCACAGCAGAAGCGUUCACGUCGCGGCCCCUGUCAGAUUCUGGUGAAUCUGCGAAUUCUUGUGU [G65U C66G], the self-cleavage was determined as 0.814.

For GGGGGCCACAGCAGAAGCGUUCACGUCGCGGCCCCUGUCAGAUUCUGGUGAAUCUGCGAAUUCUACUUU [G65A G68U], the self-cleavage was 0.813.

GGGGGCCACAGCAGAAGCGUUCACGUCGCGGCCCCUGUCAGAUUCUGGUGAAUCUGCGAAUUCUACUAU [G65A G68A]: the self-cleavage amounted to 0.941.

Consider GGGGGCCACAGCAGAAGCGUUCACGUCGCGGCCCCUGUCAGAUUCUGGUGAAUCUGCGAAUUCUACUCU [G65A G68C], for which the self-cleavage was determined as 0.945.

GGGGGCCACAGCAGAAGCGUUCACGUCGCGGCCCCUGUCAGAUUCUGGUGAAUCUGCGAAUUCUGGUGA [C66G U69A]: the self-cleavage came out at 1.02.

In the case of GGGGGCCACAGCAGAAGCGUUCACGUCGCGGCCCCUGUCAGAUUCUGGUGAAUCUGCGAAUUCUGGUGC [C66G U69C], the self-cleavage is 1.01.

Consider GGGGGCCACAGCAGAAGCGUUCACGUCGCGGCCCCUGUCAGAUUCUGGUGAAUCUGCGAAUUCUGGUGG [C66G U69G], for which the self-cleavage was found to be 0.923.

GGGGGCCACAGCAGAAGCGUUCACGUCGCGGCCCCUGUCAGAUUCUGGUGAAUCUGCGAAUUCUACUGG [G65A U69G]: the self-cleavage is 0.947.

For GGGGGCCACAGCAGAAGCGUUCACGUCGCGGCCCCUGUCAGAUUCUGGUGAAUCUGCGAAUUCUGGAGU [C66G U67A], the self-cleavage stood at 0.937.

With GGGGGCCACAGCAGAAGCGUUCACGUCGCGGCCCCUGUCAGAUUCUGGUGAAUCUGCGAAUUCUGGGGU [C66G U67G], the self-cleavage turned out to be 0.909.

For GGGGGCCACAGCAGAAGCGUUCACGUCGCGGCCCCUGUCAGAUUCUGGUGAAUCUGCGAAUUCUGUCGU [C66U U67C], the self-cleavage came to 0.956.

As to GGGGGCCACAGCAGAAGCGUUCACGUCGCGGCCCCUGUCAGAUUCUGGUGAAUCUGCGAAUUCUGUGGU [C66U U67G], the self-cleavage amounted to 1.

Turning to GGGGGCCACAGCAGAAGCGUUCACGUCGCGGCCCCUGUCAGAUUCUGGUGAAUCUGCGAAUUCUUCUGC [G65U U69C], the self-cleavage is 0.97.

Consider GGGGGCCACAGCAGAAGCGUUCACGUCGCGGCCCCUGUCAGAUUCUGGUGAAUCUGCGAAUUCUUCUGA [G65U U69A], for which the self-cleavage is 0.835.

For the variant GGGGGCCACAGCAGAAGCGUUCACGUCGCGGCCCCUGUCAGAUUCUGGUGAAUCUGCGAAUUCUGAUCU [C66A G68C], the self-cleavage is 0.84.

On to GGGGGCCACAGCAGAAGCGUUCACGUCGCGGCCCCUGUCAGAUUCUGGUGAAUCUGCGAAUUCUGAUUU [C66A G68U], for which the self-cleavage came to 0.799.

Consider GGGGGCCACAGCAGAAGCGUUCACGUCGCGGCCCCUGUCAGAUUCUGGUGAAUCUGCGAAUUCUGCACU [U67A G68C], for which the self-cleavage came out at 0.955.

On to GGGGGCCACAGCAGAAGCGUUCACGUCGCGGCCCCUGUCAGAUUCUGGUGAAUCUGCGAAUUCUGCAUU [U67A G68U], for which the self-cleavage was 1.01.

With GGGGGCCACAGCAGAAGCGUUCACGUCGCGGCCCCUGUCAGAUUCUGGUGAAUCUGCGAAUUCUGCAAU [U67A G68A], the self-cleavage was found to be 1.07.

In the case of GGGGGCCACAGCAGAAGCGUUCACGUCGCGGCCCCUGUCAGAUUCUGGUGAAUCUGCGAAUUCUGCUGG [U69G], the self-cleavage is 1.06.

Turning to GGGGGCCACAGCAGAAGCGUUCACGUCGCGGCCCCUGUCAGAUUCUGGUGAAUCUGCGAAUUCUGCUGA [U69A], the self-cleavage came to 1.02.

For the variant GGGGGCCACAGCAGAAGCGUUCACGUCGCGGCCCCUGUCAGAUUCUGGUGAAUCUGCGAAUUCUGCUGC [U69C], the self-cleavage is 1.06.

Consider GGGGGCCACAGCAGAAGCGUUCACGUCGCGGCCCCUGUCAGAUUCUGGUGAAUCUGCGAAUUCGGCUGG [U64G U69G], for which the self-cleavage amounted to 1.02.

Take GGGGGCCACAGCAGAAGCGUUCACGUCGCGGCCCCUGUCAGAUUCUGGUGAAUCUGCGAAUUCUCUUGU [G65C C66U]: the self-cleavage was 0.816.

In the case of GGGGGCCACAGCAGAAGCGUUCACGUCGCGGCCCCUGUCAGAUUCUGGUGAAUCUGCGAAUUCUCGUGU [G65C C66G], the self-cleavage came out at 0.65.

GGGGGCCACAGCAGAAGCGUUCACGUCGCGGCCCCUGUCAGAUUCUGGUGAAUCUGCGAAUUCUGCCUU [U67C G68U]: the self-cleavage was 1.06.

For the variant GGGGGCCACAGCAGAAGCGUUCACGUCGCGGCCCCUGUCAGAUUCUGGUGAAUCUGCGAAUUCUGCCAU [U67C G68A], the self-cleavage was determined as 0.983.

Regarding GGGGGCCACAGCAGAAGCGUUCACGUCGCGGCCCCUGUCAGAUUCUGGUGAAUCUGCGAAUUCUCCUGU [G65C], the self-cleavage came out at 0.758.

GGGGGCCACAGCAGAAGCGUUCACGUCGCGGCCCCUGUCAGAUUCUGGUGAAUCUGCGAAUUCUACUGU [G65A]: the self-cleavage was 0.954.

For GGGGGCCACAGCAGAAGCGUUCACGUCGCGGCCCCUGUCAGAUUCUGGUGAAUCUGCGAAUUCUUCUGU [G65U], the self-cleavage stood at 0.877.

Consider GGGGGCCACAGCAGAAGCGUUCACGUCGCGGCCCCUGUCAGAUUCUGGUGAAUCUGCGAAUUCUGCUUC [G68U U69C], for which the self-cleavage was found to be 1.1.

On to GGGGGCCACAGCAGAAGCGUUCACGUCGCGGCCCCUGUCAGAUUCUGGUGAAUCUGCGAAUUCUGCUUA [G68U U69A], for which the self-cleavage was determined as 1.01.

Turning to GGGGGCCACAGCAGAAGCGUUCACGUCGCGGCCCCUGUCAGAUUCUGGUGAAUCUGCGAAUUCUGCUUG [G68U U69G], the self-cleavage was 1.02.

In the case of GGGGGCCACAGCAGAAGCGUUCACGUCGCGGCCCCUGUCAGAUUCUGGUGAAUCUGCGAAUUCUGCGGC [U67G U69C], the self-cleavage amounted to 1.1.

As to GGGGGCCACAGCAGAAGCGUUCACGUCGCGGCCCCUGUCAGAUUCUGGUGAAUCUGCGAAUUCUGCGGA [U67G U69A], the self-cleavage was 1.1.

As for GGGGGCCACAGCAGAAGCGUUCACGUCGCGGCCCCUGUCAGAUUCUGGUGAAUCUGCGAAUUCUGAUGA [C66A U69A], the self-cleavage was determined as 0.969.
